We go through six molecules from patent US20260001928A1 (CORTERIA PHARMACEUTICALS, priority 2022, published 2026).

*1 amine or outer side, *2 acyl side, *3 side chain or, on linkers, in order; H or OH if unused. Where no end group is shown, it is not given here. Side-chain parts run from the residue outwards. [ ]: non-standard residue; d: D form. The star is where a group is joined. C20 diacid = O=C(O)CCCCCCCCCCCCCCCCCCC(=O)*; C16 diacid = O=C(O)CCCCCCCCCCCCCCC(=O)*; γGlu = O=C(O)[C@H](CCC(=O)[*:2])N[*:1]; NMeI = CC[C@H](C)[C@H](NC)C(=O)O; Pentanoyl = CCCCC(=O)*; AEEA = NCCOCCOCC(=O)O; Aib = CC(C)(N)C(=O)O

For the assay, the target named is human corticotropin-releasing factor 2a (CRF2a receptor) (human), Q13324. In words: cell-based or functional assay.
Chain of human corticotropin-releasing factor 2a (CRF2a receptor) (human), Q13324 (Q13324 20-411): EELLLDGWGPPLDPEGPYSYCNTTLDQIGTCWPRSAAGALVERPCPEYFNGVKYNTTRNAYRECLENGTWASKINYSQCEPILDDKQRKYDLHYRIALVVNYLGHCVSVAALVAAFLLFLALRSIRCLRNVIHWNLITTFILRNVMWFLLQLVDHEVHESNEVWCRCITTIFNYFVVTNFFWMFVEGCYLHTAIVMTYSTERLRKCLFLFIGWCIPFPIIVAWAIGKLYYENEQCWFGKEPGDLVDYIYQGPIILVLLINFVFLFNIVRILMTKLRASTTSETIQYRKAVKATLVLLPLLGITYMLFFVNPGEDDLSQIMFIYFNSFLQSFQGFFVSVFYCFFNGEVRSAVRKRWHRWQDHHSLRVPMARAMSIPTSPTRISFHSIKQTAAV

B1: SEQ ID NO 235 (peptide)
peptide: Pentanoyl-VLSLD[dV]PIKLK([AEEA-γGlu-C20 diacid])KILLEQEKQKKQREQAETN[Aib]QILAQV-NH2
SMILES: CCCCC(=O)N[C@H](C(=O)N[C@@H](CC(C)C)C(=O)N[C@@H](CO)C(=O)N[C@@H](CC(C)C)C(=O)N[C@@H](CC(=O)O)C(=O)N[C@@H](C(=O)N1CCC[C@H]1C(=O)N[C@H](C(=O)N[C@@H](CCCCN)C(=O)N[C@@H](CC(C)C)C(=O)N[C@@H](CCCCNC(=O)COCCOCCNC(=O)CC[C@H](NC(=O)CCCCCCCCCCCCCCCCCCC(=O)O)C(=O)O)C(=O)N[C@@H](CCCCN)C(=O)N[C@H](C(=O)N[C@@H](CC(C)C)C(=O)N[C@@H](CC(C)C)C(=O)N[C@@H](CCC(=O)O)C(=O)N[C@@H](CCC(N)=O)C(=O)N[C@@H](CCC(=O)O)C(=O)N[C@@H](CCCCN)C(=O)N[C@@H](CCC(N)=O)C(=O)N[C@@H](CCCCN)C(=O)N[C@@H](CCCCN)C(=O)N[C@@H](CCC(N)=O)C(=O)N[C@@H](CCCNC(=N)N)C(=O)N[C@@H](CCC(=O)O)C(=O)N[C@@H](CCC(N)=O)C(=O)N[C@@H](C)C(=O)N[C@@H](CCC(=O)O)C(=O)N[C@H](C(=O)N[C@@H](CC(N)=O)C(=O)NC(C)(C)C(=O)N[C@@H](CCC(N)=O)C(=O)N[C@H](C(=O)N[C@@H](CC(C)C)C(=O)N[C@@H](C)C(=O)N[C@@H](CCC(N)=O)C(=O)N[C@H](C(N)=O)C(C)C)[C@@H](C)CC)[C@@H](C)O)[C@@H](C)CC)[C@@H](C)CC)C(C)C)C(C)C
B1: the EC50 [nM] (cAMP) stood at 0.16 nM.

B2: SEQ ID NO 14 (peptide)
peptide: H-IVLSLD[dV]PIKLK([γGlu-C16 diacid])QILLKQERQKKQREQAEKNTQILEQV-NH2
SMILES: CC[C@H](C)[C@H](N)C(=O)N[C@H](C(=O)N[C@@H](CC(C)C)C(=O)N[C@@H](CO)C(=O)N[C@@H](CC(C)C)C(=O)N[C@@H](CC(=O)O)C(=O)N[C@@H](C(=O)N1CCC[C@H]1C(=O)N[C@H](C(=O)N[C@@H](CCCCN)C(=O)N[C@@H](CC(C)C)C(=O)N[C@@H](CCCCNC(=O)CC[C@H](NC(=O)CCCCCCCCCCCCCCC(=O)O)C(=O)O)C(=O)N[C@@H](CCC(N)=O)C(=O)N[C@H](C(=O)N[C@@H](CC(C)C)C(=O)N[C@@H](CC(C)C)C(=O)N[C@@H](CCCCN)C(=O)N[C@@H](CCC(N)=O)C(=O)N[C@@H](CCC(=O)O)C(=O)N[C@@H](CCCNC(=N)N)C(=O)N[C@@H](CCC(N)=O)C(=O)N[C@@H](CCCCN)C(=O)N[C@@H](CCCCN)C(=O)N[C@@H](CCC(N)=O)C(=O)N[C@@H](CCCNC(=N)N)C(=O)N[C@@H](CCC(=O)O)C(=O)N[C@@H](CCC(N)=O)C(=O)N[C@@H](C)C(=O)N[C@@H](CCC(=O)O)C(=O)N[C@@H](CCCCN)C(=O)N[C@@H](CC(N)=O)C(=O)N[C@H](C(=O)N[C@@H](CCC(N)=O)C(=O)N[C@H](C(=O)N[C@@H](CC(C)C)C(=O)N[C@@H](CCC(=O)O)C(=O)N[C@@H](CCC(N)=O)C(=O)N[C@H](C(N)=O)C(C)C)[C@@H](C)CC)[C@@H](C)O)[C@@H](C)CC)[C@@H](C)CC)C(C)C)C(C)C
In turn, B2 came in with an EC50 [nM] (cAMP) of 0.26 nM.

B3: SEQ ID NO 234 (peptide)
peptide: [NMeI]VLSLD[dV]PIKLK([AEEA-γGlu-C20 diacid])KILLEQEKQK[Aib]QREQAETN[Aib]QILAQV-NH2
modifications: N-terminus assumed
SMILES: CC[C@H](C)[C@H](NC)C(=O)N[C@H](C(=O)N[C@@H](CC(C)C)C(=O)N[C@@H](CO)C(=O)N[C@@H](CC(C)C)C(=O)N[C@@H](CC(=O)O)C(=O)N[C@@H](C(=O)N1CCC[C@H]1C(=O)N[C@H](C(=O)N[C@@H](CCCCN)C(=O)N[C@@H](CC(C)C)C(=O)N[C@@H](CCCCNC(=O)COCCOCCNC(=O)CC[C@H](NC(=O)CCCCCCCCCCCCCCCCCCC(=O)O)C(=O)O)C(=O)N[C@@H](CCCCN)C(=O)N[C@H](C(=O)N[C@@H](CC(C)C)C(=O)N[C@@H](CC(C)C)C(=O)N[C@@H](CCC(=O)O)C(=O)N[C@@H](CCC(N)=O)C(=O)N[C@@H](CCC(=O)O)C(=O)N[C@@H](CCCCN)C(=O)N[C@@H](CCC(N)=O)C(=O)N[C@@H](CCCCN)C(=O)NC(C)(C)C(=O)N[C@@H](CCC(N)=O)C(=O)N[C@@H](CCCNC(=N)N)C(=O)N[C@@H](CCC(=O)O)C(=O)N[C@@H](CCC(N)=O)C(=O)N[C@@H](C)C(=O)N[C@@H](CCC(=O)O)C(=O)N[C@H](C(=O)N[C@@H](CC(N)=O)C(=O)NC(C)(C)C(=O)N[C@@H](CCC(N)=O)C(=O)N[C@H](C(=O)N[C@@H](CC(C)C)C(=O)N[C@@H](C)C(=O)N[C@@H](CCC(N)=O)C(=O)N[C@H](C(N)=O)C(C)C)[C@@H](C)CC)[C@@H](C)O)[C@@H](C)CC)[C@@H](C)CC)C(C)C)C(C)C
Regarding B3, the EC50 [nM] (cAMP) came out at 0.09 nM.

B4: SEQ ID NO 237 (peptide)
peptide: [NMeI]VLSLD[dV]PIKLK([AEEA-AEEA-γGlu-C20 diacid])KILLEQEKQKEQREQAETN[Aib]QILAQV-NH2
modifications: N-terminus assumed
SMILES: CC[C@H](C)[C@H](NC)C(=O)N[C@H](C(=O)N[C@@H](CC(C)C)C(=O)N[C@@H](CO)C(=O)N[C@@H](CC(C)C)C(=O)N[C@@H](CC(=O)O)C(=O)N[C@@H](C(=O)N1CCC[C@H]1C(=O)N[C@H](C(=O)N[C@@H](CCCCN)C(=O)N[C@@H](CC(C)C)C(=O)N[C@@H](CCCCNC(=O)COCCOCCNC(=O)COCCOCCNC(=O)CC[C@H](NC(=O)CCCCCCCCCCCCCCCCCCC(=O)O)C(=O)O)C(=O)N[C@@H](CCCCN)C(=O)N[C@H](C(=O)N[C@@H](CC(C)C)C(=O)N[C@@H](CC(C)C)C(=O)N[C@@H](CCC(=O)O)C(=O)N[C@@H](CCC(N)=O)C(=O)N[C@@H](CCC(=O)O)C(=O)N[C@@H](CCCCN)C(=O)N[C@@H](CCC(N)=O)C(=O)N[C@@H](CCCCN)C(=O)N[C@@H](CCC(=O)O)C(=O)N[C@@H](CCC(N)=O)C(=O)N[C@@H](CCCNC(=N)N)C(=O)N[C@@H](CCC(=O)O)C(=O)N[C@@H](CCC(N)=O)C(=O)N[C@@H](C)C(=O)N[C@@H](CCC(=O)O)C(=O)N[C@H](C(=O)N[C@@H](CC(N)=O)C(=O)NC(C)(C)C(=O)N[C@@H](CCC(N)=O)C(=O)N[C@H](C(=O)N[C@@H](CC(C)C)C(=O)N[C@@H](C)C(=O)N[C@@H](CCC(N)=O)C(=O)N[C@H](C(N)=O)C(C)C)[C@@H](C)CC)[C@@H](C)O)[C@@H](C)CC)[C@@H](C)CC)C(C)C)C(C)C
B4 came in with an EC50 [nM] (cAMP) of 0.41 nM.

B5: SEQ ID NO 233 (peptide)
peptide: [NMeI]VLSLD[dV]PIKLK([AEEA-γGlu-C20 diacid])KILLEQEKQKEQREQAETN[Aib]QILAQV-NH2
modifications: N-terminus assumed
SMILES: CC[C@H](C)[C@H](NC)C(=O)N[C@H](C(=O)N[C@@H](CC(C)C)C(=O)N[C@@H](CO)C(=O)N[C@@H](CC(C)C)C(=O)N[C@@H](CC(=O)O)C(=O)N[C@@H](C(=O)N1CCC[C@H]1C(=O)N[C@H](C(=O)N[C@@H](CCCCN)C(=O)N[C@@H](CC(C)C)C(=O)N[C@@H](CCCCNC(=O)COCCOCCNC(=O)CC[C@H](NC(=O)CCCCCCCCCCCCCCCCCCC(=O)O)C(=O)O)C(=O)N[C@@H](CCCCN)C(=O)N[C@H](C(=O)N[C@@H](CC(C)C)C(=O)N[C@@H](CC(C)C)C(=O)N[C@@H](CCC(=O)O)C(=O)N[C@@H](CCC(N)=O)C(=O)N[C@@H](CCC(=O)O)C(=O)N[C@@H](CCCCN)C(=O)N[C@@H](CCC(N)=O)C(=O)N[C@@H](CCCCN)C(=O)N[C@@H](CCC(=O)O)C(=O)N[C@@H](CCC(N)=O)C(=O)N[C@@H](CCCNC(=N)N)C(=O)N[C@@H](CCC(=O)O)C(=O)N[C@@H](CCC(N)=O)C(=O)N[C@@H](C)C(=O)N[C@@H](CCC(=O)O)C(=O)N[C@H](C(=O)N[C@@H](CC(N)=O)C(=O)NC(C)(C)C(=O)N[C@@H](CCC(N)=O)C(=O)N[C@H](C(=O)N[C@@H](CC(C)C)C(=O)N[C@@H](C)C(=O)N[C@@H](CCC(N)=O)C(=O)N[C@H](C(N)=O)C(C)C)[C@@H](C)CC)[C@@H](C)O)[C@@H](C)CC)[C@@H](C)CC)C(C)C)C(C)C
On to B5, for which the EC50 [nM] (cAMP) was determined as 0.12 nM.

B6: SEQ ID NO 236 (peptide)
peptide: Ac-IVLSLD[dV]PIKLK([AEEA-AEEA-γGlu-C20 diacid])KILLEQEKQKEQREQAETN[Aib]QILAQV-NH2
SMILES: CC[C@H](C)[C@H](NC(C)=O)C(=O)N[C@H](C(=O)N[C@@H](CC(C)C)C(=O)N[C@@H](CO)C(=O)N[C@@H](CC(C)C)C(=O)N[C@@H](CC(=O)O)C(=O)N[C@@H](C(=O)N1CCC[C@H]1C(=O)N[C@H](C(=O)N[C@@H](CCCCN)C(=O)N[C@@H](CC(C)C)C(=O)N[C@@H](CCCCNC(=O)COCCOCCNC(=O)COCCOCCNC(=O)CC[C@H](NC(=O)CCCCCCCCCCCCCCCCCCC(=O)O)C(=O)O)C(=O)N[C@@H](CCCCN)C(=O)N[C@H](C(=O)N[C@@H](CC(C)C)C(=O)N[C@@H](CC(C)C)C(=O)N[C@@H](CCC(=O)O)C(=O)N[C@@H](CCC(N)=O)C(=O)N[C@@H](CCC(=O)O)C(=O)N[C@@H](CCCCN)C(=O)N[C@@H](CCC(N)=O)C(=O)N[C@@H](CCCCN)C(=O)N[C@@H](CCC(=O)O)C(=O)N[C@@H](CCC(N)=O)C(=O)N[C@@H](CCCNC(=N)N)C(=O)N[C@@H](CCC(=O)O)C(=O)N[C@@H](CCC(N)=O)C(=O)N[C@@H](C)C(=O)N[C@@H](CCC(=O)O)C(=O)N[C@H](C(=O)N[C@@H](CC(N)=O)C(=O)NC(C)(C)C(=O)N[C@@H](CCC(N)=O)C(=O)N[C@H](C(=O)N[C@@H](CC(C)C)C(=O)N[C@@H](C)C(=O)N[C@@H](CCC(N)=O)C(=O)N[C@H](C(N)=O)C(C)C)[C@@H](C)CC)[C@@H](C)O)[C@@H](C)CC)[C@@H](C)CC)C(C)C)C(C)C
As to B6, the EC50 [nM] (cAMP) is 0.54 nM.
